# Test results: US20190185537A1 (AstraZeneca / MedImmune, published 2019)
# Numbered stars: 1 amine (or outer) side, 2 acyl side, 3 side chain; on linkers, the order of the positions; unused ones are H or OH. Side chains are listed from the residue outwards. Ends that are not written are not given here. * marks the point of attachment. γGlu = O=C(O)[C@H](CCC(=O)[*:2])N[*:1]; Palmitoyl = CCCCCCCCCCCCCCCC(=O)*; Ahx = NCCCCCC(=O)O
# T1: human glucose-dependent insulinotropic peptide (gastric inhibitory polypeptide) receptor (human) (UniProt P48546)
# T1 sequence (looked up): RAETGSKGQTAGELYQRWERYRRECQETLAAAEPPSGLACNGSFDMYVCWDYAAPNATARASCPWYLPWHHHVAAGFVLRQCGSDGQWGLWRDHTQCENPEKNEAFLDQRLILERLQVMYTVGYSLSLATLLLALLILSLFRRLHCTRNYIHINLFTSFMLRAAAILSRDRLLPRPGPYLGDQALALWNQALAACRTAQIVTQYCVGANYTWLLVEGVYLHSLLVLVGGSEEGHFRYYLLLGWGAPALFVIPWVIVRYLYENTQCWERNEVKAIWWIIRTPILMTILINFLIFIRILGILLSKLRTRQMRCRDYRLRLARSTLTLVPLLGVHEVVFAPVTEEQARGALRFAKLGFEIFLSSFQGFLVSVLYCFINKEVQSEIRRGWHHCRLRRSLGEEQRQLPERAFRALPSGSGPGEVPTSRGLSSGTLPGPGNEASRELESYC
# B1: g715 (peptide)
# peptide: HSQGTFTSDK([γGlu-Palmitoyl])SKYLDSRRAQDFVQWLVAGG-NH2
# modifications: N-terminus assumed
# SMILES: CCCCCCCCCCCCCCCC(=O)N[C@@H](CCC(=O)NCCCC[C@H](NC(=O)[C@H](CC(=O)O)NC(=O)[C@H](CO)NC(=O)[C@@H](NC(=O)[C@H](Cc1ccccc1)NC(=O)[C@@H](NC(=O)CNC(=O)[C@H](CCC(N)=O)NC(=O)[C@H](CO)NC(=O)[C@@H](N)Cc1c[nH]cn1)[C@@H](C)O)[C@@H](C)O)C(=O)N[C@@H](CO)C(=O)N[C@@H](CCCCN)C(=O)N[C@@H](Cc1ccc(O)cc1)C(=O)N[C@@H](CC(C)C)C(=O)N[C@@H](CC(=O)O)C(=O)N[C@@H](CO)C(=O)N[C@@H](CCCNC(=N)N)C(=O)N[C@@H](CCCNC(=N)N)C(=O)N[C@@H](C)C(=O)N[C@@H](CCC(N)=O)C(=O)N[C@@H](CC(=O)O)C(=O)N[C@@H](Cc1ccccc1)C(=O)N[C@H](C(=O)N[C@@H](CCC(N)=O)C(=O)N[C@@H](Cc1c[nH]c2ccccc12)C(=O)N[C@@H](CC(C)C)C(=O)N[C@H](C(=O)N[C@@H](C)C(=O)NCC(=O)NCC(N)=O)C(C)C)C(C)C)C(=O)O
# B2: g326 (peptide)
# peptide: HSQGTFTSDYSKYLDSRRAQDFVQWLVAGGGGGGK(Palmitoyl)-NH2
# modifications: N-terminus assumed
# SMILES: CCCCCCCCCCCCCCCC(=O)NCCCC[C@H](NC(=O)CNC(=O)CNC(=O)CNC(=O)CNC(=O)CNC(=O)CNC(=O)[C@H](C)NC(=O)[C@@H](NC(=O)[C@H](CC(C)C)NC(=O)[C@H](Cc1c[nH]c2ccccc12)NC(=O)[C@H](CCC(N)=O)NC(=O)[C@@H](NC(=O)[C@H](Cc1ccccc1)NC(=O)[C@H](CC(=O)O)NC(=O)[C@H](CCC(N)=O)NC(=O)[C@H](C)NC(=O)[C@H](CCCNC(=N)N)NC(=O)[C@H](CCCNC(=N)N)NC(=O)[C@H](CO)NC(=O)[C@H](CC(=O)O)NC(=O)[C@H](CC(C)C)NC(=O)[C@H](Cc1ccc(O)cc1)NC(=O)[C@H](CCCCN)NC(=O)[C@H](CO)NC(=O)[C@H](Cc1ccc(O)cc1)NC(=O)[C@H](CC(=O)O)NC(=O)[C@H](CO)NC(=O)[C@@H](NC(=O)[C@H](Cc1ccccc1)NC(=O)[C@@H](NC(=O)CNC(=O)[C@H](CCC(N)=O)NC(=O)[C@H](CO)NC(=O)[C@@H](N)Cc1c[nH]cn1)[C@@H](C)O)[C@@H](C)O)C(C)C)C(C)C)C(N)=O
# B3: g322 (peptide)
# peptide: HSQGTFTSDYSKYLDSRRAQDFVQWLVAGGKNNRNNIAK(Palmitoyl)-NH2
# modifications: N-terminus assumed
# SMILES: CCCCCCCCCCCCCCCC(=O)NCCCC[C@H](NC(=O)[C@H](C)NC(=O)[C@@H](NC(=O)[C@H](CC(N)=O)NC(=O)[C@H](CC(N)=O)NC(=O)[C@H](CCCNC(=N)N)NC(=O)[C@H](CC(N)=O)NC(=O)[C@H](CC(N)=O)NC(=O)[C@H](CCCCN)NC(=O)CNC(=O)CNC(=O)[C@H](C)NC(=O)[C@@H](NC(=O)[C@H](CC(C)C)NC(=O)[C@H](Cc1c[nH]c2ccccc12)NC(=O)[C@H](CCC(N)=O)NC(=O)[C@@H](NC(=O)[C@H](Cc1ccccc1)NC(=O)[C@H](CC(=O)O)NC(=O)[C@H](CCC(N)=O)NC(=O)[C@H](C)NC(=O)[C@H](CCCNC(=N)N)NC(=O)[C@H](CCCNC(=N)N)NC(=O)[C@H](CO)NC(=O)[C@H](CC(=O)O)NC(=O)[C@H](CC(C)C)NC(=O)[C@H](Cc1ccc(O)cc1)NC(=O)[C@H](CCCCN)NC(=O)[C@H](CO)NC(=O)[C@H](Cc1ccc(O)cc1)NC(=O)[C@H](CC(=O)O)NC(=O)[C@H](CO)NC(=O)[C@@H](NC(=O)[C@H](Cc1ccccc1)NC(=O)[C@@H](NC(=O)CNC(=O)[C@H](CCC(N)=O)NC(=O)[C@H](CO)NC(=O)[C@@H](N)Cc1c[nH]cn1)[C@@H](C)O)[C@@H](C)O)C(C)C)C(C)C)[C@@H](C)CC)C(N)=O
# B4: g725 (peptide)
# peptide: HGEGTFTSDYSEYLDSK([Ahx-Palmitoyl])RAADFVAWLERGG-NH2
# modifications: N-terminus assumed
# SMILES: CCCCCCCCCCCCCCCC(=O)NCCCCCC(=O)NCCCC[C@H](NC(=O)[C@H](CO)NC(=O)[C@H](CC(=O)O)NC(=O)[C@H](CC(C)C)NC(=O)[C@H](Cc1ccc(O)cc1)NC(=O)[C@H](CCC(=O)O)NC(=O)[C@H](CO)NC(=O)[C@H](Cc1ccc(O)cc1)NC(=O)[C@H](CC(=O)O)NC(=O)[C@H](CO)NC(=O)[C@@H](NC(=O)[C@H](Cc1ccccc1)NC(=O)[C@@H](NC(=O)CNC(=O)[C@H](CCC(=O)O)NC(=O)CNC(=O)[C@@H](N)Cc1c[nH]cn1)[C@@H](C)O)[C@@H](C)O)C(=O)N[C@@H](CCCNC(=N)N)C(=O)N[C@@H](C)C(=O)N[C@@H](C)C(=O)N[C@@H](CC(=O)O)C(=O)N[C@@H](Cc1ccccc1)C(=O)N[C@H](C(=O)N[C@@H](C)C(=O)N[C@@H](Cc1c[nH]c2ccccc12)C(=O)N[C@@H](CC(C)C)C(=O)N[C@@H](CCC(=O)O)C(=O)N[C@@H](CCCNC(=N)N)C(=O)NCC(=O)NCC(N)=O)C(C)C
# B5: g726 (peptide)
# peptide: HGEGTFTSDYSEYLDSK([Ahx-Palmitoyl])RARDFVEWLERGG-NH2
# modifications: N-terminus assumed
# SMILES: CCCCCCCCCCCCCCCC(=O)NCCCCCC(=O)NCCCC[C@H](NC(=O)[C@H](CO)NC(=O)[C@H](CC(=O)O)NC(=O)[C@H](CC(C)C)NC(=O)[C@H](Cc1ccc(O)cc1)NC(=O)[C@H](CCC(=O)O)NC(=O)[C@H](CO)NC(=O)[C@H](Cc1ccc(O)cc1)NC(=O)[C@H](CC(=O)O)NC(=O)[C@H](CO)NC(=O)[C@@H](NC(=O)[C@H](Cc1ccccc1)NC(=O)[C@@H](NC(=O)CNC(=O)[C@H](CCC(=O)O)NC(=O)CNC(=O)[C@@H](N)Cc1c[nH]cn1)[C@@H](C)O)[C@@H](C)O)C(=O)N[C@@H](CCCNC(=N)N)C(=O)N[C@@H](C)C(=O)N[C@@H](CCCNC(=N)N)C(=O)N[C@@H](CC(=O)O)C(=O)N[C@@H](Cc1ccccc1)C(=O)N[C@H](C(=O)N[C@@H](CCC(=O)O)C(=O)N[C@@H](Cc1c[nH]c2ccccc12)C(=O)N[C@@H](CC(C)C)C(=O)N[C@@H](CCC(=O)O)C(=O)N[C@@H](CCCNC(=N)N)C(=O)NCC(=O)NCC(N)=O)C(C)C
# B6: g716 (peptide)
# peptide: HSQGTFTSDYK([γGlu-Palmitoyl])KYLDSRRAQDFVQWLVAGG-NH2
# modifications: N-terminus assumed
# SMILES: CCCCCCCCCCCCCCCC(=O)N[C@@H](CCC(=O)NCCCC[C@H](NC(=O)[C@H](Cc1ccc(O)cc1)NC(=O)[C@H](CC(=O)O)NC(=O)[C@H](CO)NC(=O)[C@@H](NC(=O)[C@H](Cc1ccccc1)NC(=O)[C@@H](NC(=O)CNC(=O)[C@H](CCC(N)=O)NC(=O)[C@H](CO)NC(=O)[C@@H](N)Cc1c[nH]cn1)[C@@H](C)O)[C@@H](C)O)C(=O)N[C@@H](CCCCN)C(=O)N[C@@H](Cc1ccc(O)cc1)C(=O)N[C@@H](CC(C)C)C(=O)N[C@@H](CC(=O)O)C(=O)N[C@@H](CO)C(=O)N[C@@H](CCCNC(=N)N)C(=O)N[C@@H](CCCNC(=N)N)C(=O)N[C@@H](C)C(=O)N[C@@H](CCC(N)=O)C(=O)N[C@@H](CC(=O)O)C(=O)N[C@@H](Cc1ccccc1)C(=O)N[C@H](C(=O)N[C@@H](CCC(N)=O)C(=O)N[C@@H](Cc1c[nH]c2ccccc12)C(=O)N[C@@H](CC(C)C)C(=O)N[C@H](C(=O)N[C@@H](C)C(=O)NCC(=O)NCC(N)=O)C(C)C)C(C)C)C(=O)O
# Biological target: human GLP-1 receptor (human, UniProt P43220 24-463)
# Assay: cell-based or functional assay
# Chain of human GLP-1 receptor (P43220 24-463): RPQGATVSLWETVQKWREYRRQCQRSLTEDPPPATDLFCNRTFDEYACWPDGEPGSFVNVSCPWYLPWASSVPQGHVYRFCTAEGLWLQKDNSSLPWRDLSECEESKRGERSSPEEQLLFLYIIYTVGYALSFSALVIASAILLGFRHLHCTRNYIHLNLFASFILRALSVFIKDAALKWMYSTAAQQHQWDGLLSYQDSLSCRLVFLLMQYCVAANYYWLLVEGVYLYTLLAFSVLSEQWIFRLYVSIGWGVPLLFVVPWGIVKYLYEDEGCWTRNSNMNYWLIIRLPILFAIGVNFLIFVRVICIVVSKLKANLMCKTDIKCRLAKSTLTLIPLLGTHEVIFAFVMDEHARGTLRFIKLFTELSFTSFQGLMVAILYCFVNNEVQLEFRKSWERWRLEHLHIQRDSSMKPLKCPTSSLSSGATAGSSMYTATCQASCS
row,cAMP EC50 (assay 1),Binder
1,0.0175 nM,HSQGTFTSDYSEYLDSK([Ahx-Palmitoyl])RARDFVEWLERGG-NH2 (not fully specified) [g771]
2,0.021 nM,HSQGTFTSDYSEYLDSK([Ahx-Palmitoyl])RAADFVAWLERGG-NH2 (not fully specified) [g818]
3,0.0314 nM,HSQGTFTSDYSKYLDSRRAQDFVQWLVAGGSSGGSS-NH2 [g316]
4,0.0204 nM,B1
5,0.0247 nM,B2
6,0.0106 nM,B3
7,0.0273 nM,HSQGTFTSDYSKYLDSRRAQDFVQWLVAGGGGGG-NH2 [g315]
8,0.0193 nM,HSQGTFTSDYSKYLDSRRAQDFVQWLVAGGGGGGK([γGlu-Palmitoyl])-NH2 [g327]
9,0.0252 nM,B4
10,0.171 nM,HSQGTFTSDYSKYLDSRAAQK([Ahx-Palmitoyl])FVQWLERGG-NH2 (not fully specified) [g806]
11,0.00791 nM,B5
12,0.0272 nM,HSQGTFTSDYSKYLDSRRAQDFVQWLVAGGKNNRNNIAK-NH2 [g321]
13,12.9 nM,B6

# Biological target: T1, human glucose-dependent insulinotropic peptide (gastric inhibitory polypeptide) receptor (human)
# Assay: cell-based or functional assay
row,cAMP EC50 (assay 1),Binder
1,37.1 nM,HSQGTFTSDYSEYLDSK([Ahx-Palmitoyl])RARDFVEWLERGG-NH2 (not fully specified) [g771]
2,94 nM,HSQGTFTSDYSEYLDSK([Ahx-Palmitoyl])RAADFVAWLERGG-NH2 (not fully specified) [g818]
3,3.65 nM,HSQGTFTSDYSKYLDSRRAQDFVQWLVAGGSSGGSS-NH2 [g316]
4,0.998 nM,B1
5,12.6 nM,B2
6,1.72 nM,B3
7,19.7 nM,HSQGTFTSDYSKYLDSRRAQDFVQWLVAGGGGGG-NH2 [g315]
8,12.8 nM,HSQGTFTSDYSKYLDSRRAQDFVQWLVAGGGGGGK([γGlu-Palmitoyl])-NH2 [g327]
9,1480 nM,B4
10,105 nM,HSQGTFTSDYSKYLDSRAAQK([Ahx-Palmitoyl])FVQWLERGG-NH2 (not fully specified) [g806]
11,215 nM,B5
12,6.41 nM,HSQGTFTSDYSKYLDSRRAQDFVQWLVAGGKNNRNNIAK-NH2 [g321]
13,11.8 nM,B6

# Biological target: human glucagon receptor (human, UniProt P47871 26-477)
# Assay: cell-based or functional assay
# Chain of human glucagon receptor (P47871 26-477): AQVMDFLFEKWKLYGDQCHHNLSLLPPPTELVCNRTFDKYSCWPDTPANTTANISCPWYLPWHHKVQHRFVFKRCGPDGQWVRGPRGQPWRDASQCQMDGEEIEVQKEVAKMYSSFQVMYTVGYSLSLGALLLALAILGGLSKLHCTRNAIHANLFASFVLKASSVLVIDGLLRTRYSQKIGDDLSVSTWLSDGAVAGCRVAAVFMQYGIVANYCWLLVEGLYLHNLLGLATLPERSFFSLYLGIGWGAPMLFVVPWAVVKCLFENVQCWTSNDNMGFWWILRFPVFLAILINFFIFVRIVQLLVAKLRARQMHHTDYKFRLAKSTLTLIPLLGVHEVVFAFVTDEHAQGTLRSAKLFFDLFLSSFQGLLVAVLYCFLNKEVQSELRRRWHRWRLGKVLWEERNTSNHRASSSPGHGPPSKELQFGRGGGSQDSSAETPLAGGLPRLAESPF
row,cAMP EC50 (assay 1),Binder
1,0.00551 nM,HSQGTFTSDYSEYLDSK([Ahx-Palmitoyl])RARDFVEWLERGG-NH2 (not fully specified) [g771]
2,0.0089 nM,HSQGTFTSDYSEYLDSK([Ahx-Palmitoyl])RAADFVAWLERGG-NH2 (not fully specified) [g818]
3,0.0106 nM,HSQGTFTSDYSKYLDSRRAQDFVQWLVAGGSSGGSS-NH2 [g316]
4,0.00253 nM,B1
5,0.00282 nM,B2
6,0.00355 nM,B3
7,0.00504 nM,HSQGTFTSDYSKYLDSRRAQDFVQWLVAGGGGGG-NH2 [g315]
8,0.00232 nM,HSQGTFTSDYSKYLDSRRAQDFVQWLVAGGGGGGK([γGlu-Palmitoyl])-NH2 [g327]
9,59.9 nM,B4
10,0.0099 nM,HSQGTFTSDYSKYLDSRAAQK([Ahx-Palmitoyl])FVQWLERGG-NH2 (not fully specified) [g806]
11,13.1 nM,B5
12,0.0279 nM,HSQGTFTSDYSKYLDSRRAQDFVQWLVAGGKNNRNNIAK-NH2 [g321]
13,2.46 nM,B6
